± gives the uncertainty stated by the source.
assay: amyloid nucleation score (Sup35N fusion, yeast selection) (log enrichment); library NNK3; higher = more nucleation; inactive = no reads after selection
Procedure, shortened: (§1)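 Libraries of peptides of 20 random codons fused to Sup35N were expressed in psi-negative yeast and induced 24 hours with 100 μM copper sulfate. Selection was 7 days at 30°C on medium lacking adenine and uracil, and plasmid inserts were Illumina-sequenced before and after selection. Nucleation score is the DiMSum log enrichment of output over input reads, centred on the mode score of non-aggregating sequences, and sequences with under 100 input reads were left out.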

Row | Substance | amyloid nucleation score
1 | NVFSS | inactive

assay: amyloid nucleation score (Sup35N fusion, yeast selection) (log enrichment); library NNK1; higher = more nucleation; inactive = no reads after selection
Procedure, shortened: as §1

Row | Substance | amyloid nucleation score
2 | CLPNSYGAV | 0.435 ± 0.53
3 | KSAANTINIRPENETVPRFQ | 0.556 ± 0.59
4 | IASVWFRCFHRNRLVWSLRR | 0.214 ± 0.44
5 | DFGRFTGSG | -0.824 ± 2.1
6 | LGLRFTCRLFGCIYTRASIM | -0.735 ± 1.7
7 | GRSLAFTSYCLMKGLTSVSV | -0.383 ± 0.29
8 | EMTRLLNSCIKYQYSRQRYA | -0.97 ± 1.2
9 | SCAASGNLYVSSAGGVRGKR | -0.734 ± 0.46
10 | VSVFDVWRMQCGNSLVKEGG | -0.088 ± 0.42
11 | RRIFRYSMNNLNVFVYNRFP | -0.277 ± 0.51
12 | ARFVDYPCALLWARTSR | -0.375 ± 0.56
13 | HNYVGDTLGVMSCWPTTRFP | 0.087 ± 0.87
14 | HPRMCWVPVISIIPLLSVMA | 0.185 ± 0.41
15 | SDSGPTALNVYFPGTCQGNS | inactive
16 | TEAMTGYVLNNNWYSQLYVF | -0.601 ± 1.1
17 | ELHTAEFNLNRM | 1.04 ± 0.73
18 | LGTLMSPPTRTDFMHPRYRV | 1.51 ± 0.48
19 | LNNLWNLGLTGLQGGNMYKI | inactive
20 | NVRRLIFIMLKLDAICYWSS | -0.695 ± 1.1
21 | INSQSTATN | 0.593 ± 0.31
22 | VLRNDTMGAGANF | -1.3 ± 0.39
23 | FSFLHLVGRWGLIVSNCSDV | -0.355 ± 0.64

Row | Substance | amyloid nucleation score
24 | RCGRSVVDGLRCFRLRMAFG | -1.06 ± 1.2
25 | KDVFPILGFCSAYLPYAWSA | -0.474 ± 0.29
26 | APSSKF | 0.062 ± 1.1
27 | FHTLDVCPGRVLNLYNVKVW | -0.427 ± 1
28 | WSSWGGSTGVVRKREELCGR | -0.44 ± 0.5
29 | FNLSVKAY | -0.581 ± 1.6
30 | VESFYVSIFGGGLRLKCSKS | 0.514 ± 0.46
31 | SMVRYTMDSKVKKRSSVVVG | 3.56 ± 0.18
32 | GGCRIYLSSRM | -0.583 ± 0.46
33 | LMLTARPVMFVLLCWWFRSS | 0.246 ± 0.43
34 | TSRNW | -0.626 ± 1.1
35 | NDHDGEFDD | 0.239 ± 0.57
36 | DTKNAWLILSTYLDNLFHIS | 0.976 ± 0.33
37 | GLMVHRDFGIECLQHETHFG | 0.074 ± 0.26
38 | LIWSHVLDGYSCEKPSNRMC | -0.662 ± 0.98
39 | GLQEVCWC | -1.67 ± 2.4
40 | MNLSVSVPVHTRLDMMFM | 5.616 ± 0.049
41 | ASYGIIVSSLFFNGRGCHWS | 3.81 ± 0.096
42 | LFLECNDTLHRATTGVNLFK | 0.206 ± 1.6
43 | WGKYSD | 0.343 ± 0.7
44 | GRGHREPIVKDAAGRLGSWS | -0.421 ± 0.94
45 | SRYYLSRPVLRYG | 0.546 ± 0.42

Row | Substance | amyloid nucleation score
46 | EMYKSVP | 0.109 ± 0.48
47 | SNLLPLYP | 0.263 ± 1.1
48 | IFGTHFGTCFSGHAEEDTGE | 0.724 ± 0.83
49 | HSRSCKSFLI | inactive
50 | GILDTLKVEVLGSVVHS | 1.01 ± 0.59
51 | RWKRVIMSQHQVVYVNSWMV | -0.484 ± 1.9
52 | SNSMLISYSCEFTWGVGKVL | 0.242 ± 0.4
53 | SWVWCYWILSWIREFLLRQG | 0.447 ± 0.42
54 | RALLMTMKFNKMGSFNIESN | 1.77 ± 0.2
55 | YMILLSLGVFFTPVPDYFAQ | -0.385 ± 0.68
56 | VAACLKNMIESVQSVKYIWR | 0.837 ± 0.93
57 | SRTVFGCEDIRERRWVFWEI | 0.647 ± 0.69
58 | NFARDLKRHVRMG | 0.461 ± 0.35
59 | SCRSGRRRPLPTGGPILATN | -0.015 ± 0.64
60 | NLINVFTLKWFDITL | 5.686 ± 0.053
61 | ILSLS | 0.038 ± 0.18
62 | LDVCCEYPSKSSVMEWQVWL | 1.02 ± 0.54
63 | WFAAHPYFNWDGGIRY | -1.41 ± 2.7
64 | RAVVW | 0.695 ± 0.8
65 | SGYLRKRYTRRDC | inactive
66 | CWDLTTVCHNFNRYHSWVSR | 0.431 ± 1.1

assay: amyloid nucleation score (Sup35N fusion, yeast selection) (log enrichment); library NNK2; higher = more nucleation; inactive = no reads after selection
Procedure, shortened: as §1

Row | Substance | amyloid nucleation score
67 | NVFSS | -0.42 ± 0.35
68 | DVLALFYSYCALN | 0.049 ± 1.1
69 | YFIGFSSSMNFGYFMRVYRI | inactive
70 | KSESLLPLNWAHARALIHRA | 1.1 ± 0.36
71 | YSISQLWYTLTIHVPFHPLK | -0.114 ± 0.15
72 | YSSCLCLQCTRMQTPMVQFL | 0.032 ± 0.53
73 | KARWLIFDDVFCCCKFGGWW | 9.018 ± 0.053
74 | YYKKTVVPYRLYAGLELIAT | -0.607 ± 0.48
75 | LVRMPRGTSFGRCNVCV | inactive
76 | NSIYTESHGCTSSCLYGSGY | -0.839 ± 0.78
77 | MMVAGLFLGAFFLISTKGVK | 4.43 ± 0.064
78 | HMMHSWAFL | 3.81 ± 0.047
79 | FKHVLDRN | -0.343 ± 0.45
80 | VVVHSTLLGFWIIF | inactive
81 | HRRVCLDAYTFTFLNMVLAW | -0.187 ± 0.65
82 | LSFIFL | 4.256 ± 0.031
83 | FRGGSCYIVVWA | 6.573 ± 0.04
84 | SSDNTQYTETRYSYGFLIKL | 0.776 ± 0.56
85 | CYNVGEGIVARIRGGSKGLK | 0.619 ± 0.81
86 | LNVRLFSVFFSHTSSSHSEN | 3.21 ± 0.061
87 | KVNKCIIRQLDLNMPLASRW | 0.584 ± 0.46
88 | HTKMTIWNVVQC | -0.517 ± 0.63
89 | MEPYRVKAMYPPRVIKVWFT | -0.448 ± 0.76
90 | RSVALARLMFVPLTLDSV | 0.264 ± 0.2
91 | KSCGNGHISDVIYLRGMLGV | -0.538 ± 0.55
92 | VSLSERLTHLLCIRF | 0.343 ± 0.64

Row | Substance | amyloid nucleation score
93 | TLCVGVFAHTAMRCRECHAA | 5.479 ± 0.043
94 | KLVCRMTGCFWVVFIACPYY | 0.175 ± 0.35
95 | TLFLSNFRFRCRFPDHALIS | -1.3 ± 0.48
96 | ESFVRVLSFFCVSWYGSMVR | 1.75 ± 0.24
97 | SHIDMFAQECYLCFANVHRR | 2.78 ± 0.21
98 | IRCQSVRDIGLYFDLDWVEK | 2.28 ± 0.085
99 | KGCVDHVFIYGIN | -1.44 ± 0.41
100 | NNLPTQIYYVLNSPSEVRLN | 0.579 ± 0.31
101 | AFPPE | -0.726 ± 1.1
102 | FCMFSNIYVFPSTIF | 7.583 ± 0.02
103 | SVYDPAYVLNMNTLSTSSNL | 0.451 ± 0.33
104 | CCIFWYCRADAINNCLARFD | 7.154 ± 0.041
105 | YAIDRRKSL | inactive
106 | ICISWPINLCMV | 2.6 ± 0.22
107 | MPLCECHNKGHVDFCDTRTA | -0.072 ± 1.1
108 | AIRRYIVKAPLLCES | 1.75 ± 0.47
109 | LFPFRASRGPVPYKRDQ | 1.89 ± 0.52
110 | MYILMKDIRDFIFSSRPIIS | inactive
111 | TLAFCFFLTKLSVQCFLYPP | 0.241 ± 0.8
112 | TYFLGPLVSNSLRYY | 4.027 ± 0.04
113 | GLGAWFEI | 0.485 ± 0.29
114 | DSNDRWVW | -0.409 ± 0.76
115 | DESWETIFLYKCRGQNW | -0.213 ± 1.1
116 | RPTAIPAHLIVFSEFCEAEW | 0.739 ± 0.45
117 | HLSCKVIENGLWTSFCFKQE | -1.04 ± 0.54
118 | QLFAVQSLCRKRRQLRWLPT | 0.463 ± 0.64

Row | Substance | amyloid nucleation score
119 | MVNGEVTLGAVCNTYQWACI | 2.66 ± 0.15
120 | RCPGCDE | 1.26 ± 0.25
121 | QGLSCEGILWLVEYSQTFFG | -1.27 ± 1.1
122 | RKRVVSQEPCL | -0.996 ± 0.78
123 | YVHMMSMKPHQLINCLRLFY | -1.2 ± 0.74
124 | IPAMETSTLAGYGPYSHNFG | -0.629 ± 0.26
125 | PHDGMHINT | 1.53 ± 0.31
126 | CGGAGRMLWGLADSNAALEA | 0.163 ± 0.63
127 | RCKIRSLFSNLYPDSVFTLT | inactive
128 | IAAYLLNSQYDSCNVDEKRH | -0.448 ± 0.39
129 | WDGYGVYFQTQAKVR | 0.102 ± 0.63
130 | KVRLGTLTYICYANSNRLCP | 2.37 ± 0.12
131 | RIISCRN | 0.331 ± 0.43
132 | LHTYYGMCLPRVENISENRV | inactive
133 | IYKGTASIISCRWGWSVRHW | -0.573 ± 0.79
134 | CMSSDIYFLVFTESEIVSLC | -0.42 ± 0.76
135 | ILNPFCTRFK | -2.26 ± 0.64
136 | TLRVLCTVCYSMDRVAA | inactive
137 | LESYSQCTLTHSNCVLTDEC | 0.909 ± 0.57
138 | EPGMKSRSNYMHGTKGEHHR | -0.131 ± 0.45
139 | TRMMCKRFRIML | 0.544 ± 0.49
140 | IIYYIMVTFWYSVYQPFRSF | -0.081 ± 0.79
141 | SHMSHYRNSSTDFAA | -0.745 ± 0.42
142 | QEVRSF | 0.6 ± 0.66
143 | DSDSFYIMPMVHMPNNFHRD | -1.41 ± 1.1
144 | GIMQCFGSMRMQWCNSDKEC | 5.021 ± 0.037

Row | Substance | amyloid nucleation score
145 | TMHYYLWDSN | 4.88 ± 0.1
146 | PISTSLADR | 1.21 ± 0.42
147 | SKGGCTEFIEKTWNLCSCLV | -1.1 ± 0.78
148 | IVLFVKVDLLIDLISPL | 0.049 ± 0.56
149 | RGYVRLSHTGTTRHHP | inactive
150 | YSFFCSMILYPIHDNVGWSF | 4.86 ± 0.088
151 | REQYPYINQHRP | 2.52 ± 0.14
152 | SHFCN | 0.859 ± 0.43
153 | LLLLF | -1.58 ± 0.75
154 | MIICLEVKTGYST | 3.73 ± 0.068
155 | LGVCICPCRAPEMKDTSHDA | 4.92 ± 0.076
156 | FARKMIGLPLLYLLGVMFGR | -0.877 ± 0.78
157 | SYGMRTEWTVCIAIRLHASN | 1.31 ± 0.52
158 | VQKTIVKLLAWLCFRGTAYC | 0.486 ± 0.8
159 | GGLIE | -0.817 ± 1.1
160 | SSFWFSGAADINRVVLRGIE | -0.175 ± 0.32
161 | QFILFCIPTPNQ | 4.93 ± 0.08
162 | LYLYSWRCNPISP | inactive
163 | YSFVCIRIGPLKEVCKLNSC | -0.774 ± 1.1
164 | CLRSCRPYSQTIINVA | 6.16 ± 0.062
165 | QIHGVTFFSQRTGTCASEP | -0.875 ± 0.44
166 | TICWHGFNR | 0.119 ± 0.76
167 | DEGSNIGHGSLDIHRDCALL | -0.264 ± 0.23
168 | VFTISESHLCWQYHLQEFT | 4.76 ± 0.068
169 | FALHGEDWSNSTISRNFWSR | -0.031 ± 0.35

Source: the supplement of paper PMC12042874
